Results as given in the supplement of paper PMC9170038.

Tested on: K4 kissing-loop RNA reporter
Experiment: apparent KD of K4 kissing-loop reporter; higher = weaker reporter binding
Settings: Eterna round: R107
Description: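 RNA-MaP round R107: designed RNA switches with theophylline, tryptophan, arginine or FMN aptamers are transcribed on-chip within common flanks. They are titrated with a labelled K4 kissing-loop RNA reporter in RNA-MaP buffer (100 mM Tris pH 7.5, 80 mM KCl, 4 mM MgCl2), without ligand or with the indicated ligand. Median apparent KD per design.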

[1] = input ligand: theophylline 20 uM
[2] = input ligand: tryptophan 2.4 mM
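Note: bound reporter read as fluorescence of individual clusters on recovered sequencing chips by microscopy, with normalized cluster intensities fitted with a binding model.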

Sequence: GCGGCCCAGCCGGAUACCAGUGACCCGCUGGGAACCGCGGGCCCAGAGUGAUGUUCGGGACACCCUUGGCAGCCGCCUGGGUCGC [#2 Same State - Theophylline B Attempt #18 (HarryS)]
- apparent KD of K4 kissing-loop reporter (input ligand: FMN 200 uM): 689 nM
- apparent KD of K4 kissing-loop reporter (input ligand: arginine 13.2 mM): 274 nM
- apparent KD of K4 kissing-loop reporter (input ligand: none): 928 nM
- apparent KD of K4 kissing-loop reporter [1]: 684 nM
- apparent KD of K4 kissing-loop reporter [2]: 320 nM

Sequence: UGGAUAUAGUGAUGUUAUAUAGAGAGUGAUACCAGUUUAGAGAAGAACCCUUGGCAGCAUAGAGAAGUAUCAUUAGAGAAGAAUG [ExTheophyl.Ap]
- apparent KD of K4 kissing-loop reporter (input ligand: FMN 200 uM): 220 nM
- apparent KD of K4 kissing-loop reporter (input ligand: arginine 13.2 mM): 208 nM
- apparent KD of K4 kissing-loop reporter (input ligand: none): 233 nM
- apparent KD of K4 kissing-loop reporter [1]: 240 nM
- apparent KD of K4 kissing-loop reporter [2]: 180 nM

Sequence: AUAGGAGUGAUGUUCCUUAGUUUCUCCGAUACCAGUAUGGAAACAUACCCUUGGCAGCGGGAAACCGCAGAUUAGGAAACUAGUC [Theophylline A K4 6]
- apparent KD of K4 kissing-loop reporter (input ligand: FMN 200 uM): 208 nM
- apparent KD of K4 kissing-loop reporter (input ligand: arginine 13.2 mM): 200 nM
- apparent KD of K4 kissing-loop reporter (input ligand: none): 210 nM
- apparent KD of K4 kissing-loop reporter [1]: 210 nM
- apparent KD of K4 kissing-loop reporter [2]: 194 nM

Sequence: UUAGAGAUCUCAGGAUAUGAGUGAUGUUGGUAUCAAGAUCUGAGAUAGAAUUCUAUCUCAGAUCAAUCAGAAGGGAGAUCUCAUU [AK2.1 Exc FMN B]
- apparent KD of K4 kissing-loop reporter (input ligand: FMN 200 uM): 376 nM
- apparent KD of K4 kissing-loop reporter (input ligand: arginine 13.2 mM): 424 nM
- apparent KD of K4 kissing-loop reporter (input ligand: none): 534 nM
- apparent KD of K4 kissing-loop reporter [1]: 583 nM
- apparent KD of K4 kissing-loop reporter [2]: 550 nM

Sequence: UAAGUGAUUCACAAGCUAGAGUUACUCGAAGGAGCGACGAAUUCGUCAGGUAGGUCGCGAGUGAUGUUCGCAUGCUCUAGCAAAU [AK1 Exc Arginine A]
- apparent KD of K4 kissing-loop reporter (input ligand: FMN 200 uM): 655 nM
- apparent KD of K4 kissing-loop reporter (input ligand: arginine 13.2 mM): 681 nM
- apparent KD of K4 kissing-loop reporter (input ligand: none): 704 nM
- apparent KD of K4 kissing-loop reporter [1]: 689 nM
- apparent KD of K4 kissing-loop reporter [2]: 650 nM

Sequence: GGUCCGGGCUCGGCCGCCACUCCCUCCUGCCGUAAGGUGGGAUACCGAGUGAUGUUCGGUUGGAGGAGGACCGGGAGCCCGGACC [#2 Exclusion - Tryptophan B Attempt #15 (HarryS)]
- apparent KD of K4 kissing-loop reporter (input ligand: FMN 200 uM): 165 nM
- apparent KD of K4 kissing-loop reporter (input ligand: arginine 13.2 mM): 113 nM
- apparent KD of K4 kissing-loop reporter (input ligand: none): 122 nM
- apparent KD of K4 kissing-loop reporter [1]: 105 nM
- apparent KD of K4 kissing-loop reporter [2]: 107 nM

Sequence: AGUUCCGACGGAAGGAGCGGACAGUAUUGACGGAAAGGUGCAAGUGAUGUUUGCGCUUGUGUCCAGGUAGGUCGCCGUCGGAACA [Arg B SS t13]
- apparent KD of K4 kissing-loop reporter (input ligand: FMN 200 uM): 91.3 nM
- apparent KD of K4 kissing-loop reporter (input ligand: arginine 13.2 mM): 82.4 nM
- apparent KD of K4 kissing-loop reporter (input ligand: none): 84.7 nM
- apparent KD of K4 kissing-loop reporter [1]: 79.3 nM
- apparent KD of K4 kissing-loop reporter [2]: 89.4 nM

Sequence: AGGAGCGUGCGAUGUAAAUCGCACGCUCCACGAGGACCGGUACGGCCGCCACUCGCUCGUGCAGAGUGAUGUUCUGCCGGCGAAU [#2 Same State - Tryptophan A Attempt #24 (HarryS)]
- apparent KD of K4 kissing-loop reporter (input ligand: FMN 200 uM): 306 nM
- apparent KD of K4 kissing-loop reporter (input ligand: arginine 13.2 mM): 202 nM
- apparent KD of K4 kissing-loop reporter (input ligand: none): 270 nM
- apparent KD of K4 kissing-loop reporter [1]: 248 nM
- apparent KD of K4 kissing-loop reporter [2]: 260 nM

Sequence: CCUAUCUCAUACGAUACCAGUCAAUGAGAUUUUAUCAAUGCCAUCACCGAGUGAUGUUCGGACCCUUGGCAGCGUAUGGGAUAGG [#02 K4 Theophylline B Exclusion]
- apparent KD of K4 kissing-loop reporter (input ligand: FMN 200 uM): 236 nM
- apparent KD of K4 kissing-loop reporter (input ligand: arginine 13.2 mM): 185 nM
- apparent KD of K4 kissing-loop reporter (input ligand: none): 217 nM
- apparent KD of K4 kissing-loop reporter [1]: 298 nM
- apparent KD of K4 kissing-loop reporter [2]: 221 nM

Sequence: UGGACGAUAUACGAUAAGUAUAUCUGGGAUACCAGUGACGAAAGUCACCCUUGGCAGCUCAACUGCCAGUGAUGUUGGUAGUCCA [#17 K4 Theophylline A Same State]
- apparent KD of K4 kissing-loop reporter (input ligand: FMN 200 uM): 192 nM
- apparent KD of K4 kissing-loop reporter (input ligand: arginine 13.2 mM): 153 nM
- apparent KD of K4 kissing-loop reporter (input ligand: none): 135 nM
- apparent KD of K4 kissing-loop reporter [1]: 182 nM
- apparent KD of K4 kissing-loop reporter [2]: 126 nM

Sequence: GCAGUGAUGUUGCGCAGGUACAGUGGAGUGCGAGGACCGGUACGGCCGCCACUCGUACAGAACUAGCUAAUAUAUGGAUAGGUGA [VIII]
- apparent KD of K4 kissing-loop reporter (input ligand: FMN 200 uM): 287 nM
- apparent KD of K4 kissing-loop reporter (input ligand: arginine 13.2 mM): 358 nM
- apparent KD of K4 kissing-loop reporter (input ligand: none): 315 nM
- apparent KD of K4 kissing-loop reporter [1]: 347 nM
- apparent KD of K4 kissing-loop reporter [2]: 280 nM

Sequence: UGACUACAAAGGAAAUAAUCCUAGUGAUGUUAGGAUAUGCUGAUAAGCAGAAGGAACUGAGAUCGAAAGAUCUCAAAUGUAGUCU [FmnAX 26 Mat Inspired #SwitchBubble #StaticStem #K4Early]
- apparent KD of K4 kissing-loop reporter (input ligand: FMN 200 uM): 131 nM
- apparent KD of K4 kissing-loop reporter (input ligand: arginine 13.2 mM): 90.1 nM
- apparent KD of K4 kissing-loop reporter (input ligand: none): 84.9 nM
- apparent KD of K4 kissing-loop reporter [1]: 96.6 nM
- apparent KD of K4 kissing-loop reporter [2]: 88.2 nM

Sequence: GAUAUAGAGGCGGCCGCCACUAGUGAUGUUAGUGAUGUUAGAUAGAGAAUAGAACAGAGGUGGGAUAGGACCGGGCCAGAUAGAG [whbob_SS_Tryp_B_w34]
- apparent KD of K4 kissing-loop reporter (input ligand: FMN 200 uM): 90.6 nM
- apparent KD of K4 kissing-loop reporter (input ligand: arginine 13.2 mM): 72.7 nM
- apparent KD of K4 kissing-loop reporter (input ligand: none): 67.9 nM
- apparent KD of K4 kissing-loop reporter [1]: 65.8 nM
- apparent KD of K4 kissing-loop reporter [2]: 76 nM

Sequence: UGUUAUGGGUGAGGAUAUGCUGACGAUGCGGGUGCGAGUGAUGUUGGUGUGGCUGGUGUCGUUUGUGCAGAAGGCACGCUCGUGG [BDazzled]
- apparent KD of K4 kissing-loop reporter (input ligand: FMN 200 uM): 879 nM
- apparent KD of K4 kissing-loop reporter (input ligand: arginine 13.2 mM): 522 nM
- apparent KD of K4 kissing-loop reporter (input ligand: none): 934 nM
- apparent KD of K4 kissing-loop reporter [1]: 846 nM
- apparent KD of K4 kissing-loop reporter [2]: 811 nM

Sequence: AACUGUCGAGGACAACAUUACUGAGGUGAUACCAGCAUCGAAAGAUGCCCUUGGCAGCACCAACUUGCAGUGAUGUUGCAAGUAA [BrourdMod 9 - Jieux - Exclusion - Theophylline A]
- apparent KD of K4 kissing-loop reporter (input ligand: FMN 200 uM): 356 nM
- apparent KD of K4 kissing-loop reporter (input ligand: arginine 13.2 mM): 324 nM
- apparent KD of K4 kissing-loop reporter (input ligand: none): 343 nM
- apparent KD of K4 kissing-loop reporter [1]: 473 nM
- apparent KD of K4 kissing-loop reporter [2]: 314 nM

Sequence: AGCGAUGUUUUCUCUAAGAGUGAUGUUUUUCGAGGACCGGUACGGCCGCCACUCGAAUAAAGUGUGUGGUAGUGAGCUGUUGACA [#17 K4 Tryptophan A Exclusion]
- apparent KD of K4 kissing-loop reporter (input ligand: FMN 200 uM): 1150 nM
- apparent KD of K4 kissing-loop reporter (input ligand: arginine 13.2 mM): 606 nM
- apparent KD of K4 kissing-loop reporter (input ligand: none): 1110 nM
- apparent KD of K4 kissing-loop reporter [1]: 648 nM
- apparent KD of K4 kissing-loop reporter [2]: 804 nM

Sequence: UGAUACCAGACUGAUACCAGCCACAGAGUCAAAGACUCUGAAAAGGAAACCAGUGAUGUUGGCCCUUGGCAGCAGUCUGGUAUCU [TheoBX 15 #SwitchBubble #StaticStem]
- apparent KD of K4 kissing-loop reporter (input ligand: FMN 200 uM): 191 nM
- apparent KD of K4 kissing-loop reporter (input ligand: arginine 13.2 mM): 176 nM
- apparent KD of K4 kissing-loop reporter (input ligand: none): 171 nM
- apparent KD of K4 kissing-loop reporter [1]: 152 nM
- apparent KD of K4 kissing-loop reporter [2]: 164 nM

Sequence: UUUCGGUUCUGAGGAUAUUCGGACAAAUAUAGUGAUGUUGUAUAAGGAGGAGGGUGUUGGCAGUGAGGAGAAGGCAGAAGAGGAU [ExFMNB.T]
- apparent KD of K4 kissing-loop reporter (input ligand: FMN 200 uM): 1000 nM
- apparent KD of K4 kissing-loop reporter (input ligand: arginine 13.2 mM): 677 nM
- apparent KD of K4 kissing-loop reporter (input ligand: none): 946 nM
- apparent KD of K4 kissing-loop reporter [1]: 524 nM
- apparent KD of K4 kissing-loop reporter [2]: 622 nM

Sequence: AGUGAUGUUGAGUUAUCUUAGUGAAGUGAUCGAGGACCGGUACGGCCGCCACUCGAGUGAUGAGUGAGUGAUGUUUGUUUAGGGA [llkmullin]
- apparent KD of K4 kissing-loop reporter (input ligand: FMN 200 uM): 695 nM
- apparent KD of K4 kissing-loop reporter (input ligand: arginine 13.2 mM): 780 nM
- apparent KD of K4 kissing-loop reporter (input ligand: none): 897 nM
- apparent KD of K4 kissing-loop reporter [1]: 765 nM
- apparent KD of K4 kissing-loop reporter [2]: 413 nM

Sequence: ACCUGUAGCAGAAGGAGCGACAGUUAUUCUGAUAGAACUCUGAGUGAUGUUCAGAACAACUGUCAGGUAGGUCGCUGAUACAGGU [Arg B Ex t8a]
- apparent KD of K4 kissing-loop reporter (input ligand: FMN 200 uM): 577 nM
- apparent KD of K4 kissing-loop reporter (input ligand: arginine 13.2 mM): 370 nM
- apparent KD of K4 kissing-loop reporter (input ligand: none): 560 nM
- apparent KD of K4 kissing-loop reporter [1]: 512 nM
- apparent KD of K4 kissing-loop reporter [2]: 583 nM

Sequence: ACGCUGGUGAAUAACACUAGCGAAUAAUUCCGAGGACCGGUACGGCCGCCACUCGGCUAACUGCGAGUGAUGUUCGAUAAUAAAA [Mat - Mod of OpenEnded 3 - D10]
- apparent KD of K4 kissing-loop reporter (input ligand: FMN 200 uM): 78.5 nM
- apparent KD of K4 kissing-loop reporter (input ligand: arginine 13.2 mM): 158 nM
- apparent KD of K4 kissing-loop reporter (input ligand: none): 103 nM
- apparent KD of K4 kissing-loop reporter [1]: 156 nM
- apparent KD of K4 kissing-loop reporter [2]: 57.5 nM
